Results reported in US20110263827A1 (AbbVie / Abbott, published 2011).

B1: DVD767 (bispecific antibody)
VH: QVQLQESGPGLVKPSQTLSLTCTVSGYSISSDFAWNWIRQPPGKGLEWMGYISYSGNTRYQPSLKSRITISRDTSKNQFFLKLNSVTAADTATYYCVTAGRGFPYWGQGTLVTVSSASTKGPSVFPLAPEVQLVQSGGGLVKPGGSLRLSCAASGFTFSSYAMHWVRQAPGKGLEWVAVISYDGSNKYYADSVKGRFTISRDNSKNTLYLQMNSLRAEDTAVYYCARFSGWPNNYYYYGMDVWGQGTTVTVSS
VL: DIQMTQSPSSMSVSVGDRVTITCHSSQDINSNIGWLQQKPGKSFKGLIYHGTNLDDGVPSRFSGSGSGTDYTLTISSLQPEDFATYYCVQYAQFPWTFGGGTKLEIKRTVAAPSVFIFPPDVVMTQSPLSLPVTPGEPASISCRSSQSLLHSNGFNYVDWYLQKPGQSPHLLIYFGSYRASGVPDRFSGSGSGTDFTLKISRVEAEDVGVYYCMQALQTPPWTFGQGTKVEIRR
notes: DVD-Ig; HC L, LC L; variable parts only
B2: DVD325 (bispecific antibody)
VH: QVQLQESGPGLVKPSQTLSLTCTVSGYSISSDFAWNWIRQPPGKGLEWMGYISYSGNTRYQPSLKSRITISRDTSKNQFFLKLNSVTAADTATYYCVTAGRGFPYWGQGTLVTVSSASTKGPEVQLVQSGGGLVKPGGSLRLSCAASGFTFSSYAMHWVRQAPGKGLEWVAVISYDGSNKYYADSVKGRFTISRDNSKNTLYLQMNSLRAEDTAVYYCARFSGWPNNYYYYGMDVWGQGTTVTVSS
VL: DIQMTQSPSSMSVSVGDRVTITCHSSQDINSNIGWLQQKPGKSFKGLIYHGTNLDDGVPSRFSGSGSGTDYTLTISSLQPEDFATYYCVQYAQFPWTFGGGTKLEIKRTVAAPDVVMTQSPLSLPVTPGEPASISCRSSQSLLHSNGFNYVDWYLQKPGQSPHLLIYFGSYRASGVPDRFSGSGSGTDFTLKISRVEAEDVGVYYCMQALQTPPWTFGQGTKVEIRR
notes: DVD-Ig; HC S, LC S; variable parts only
B3: DVD797 (bispecific antibody)
VH: B1 VH
VL: B2 VL
notes: DVD-Ig; HC L, LC S; variable parts only
B4: DVD827 (bispecific antibody)
VH: B2 VH
VL: B1 VL
notes: DVD-Ig; HC S, LC L; variable parts only
B5: DVD822 (bispecific antibody)
VH: EVQLVESGGGLVQPGGSLRLSCAASGFTINASWIHWVRQAPGKGLEWVGAIYPYSGYTNYADSVKGRFTISADTSKNTAYLQMNSLRAEDTAVYYCARWGHSTSPWAMDYWGQGTLVTVSSASTKGPSVFPLAPQVQLQESGPGLVKPSQTLSLTCTVSGYSISSDFAWNWIRQPPGKGLEWMGYISYSGNTRYQPSLKSRITISRDTSKNQFFLKLNSVTAADTATYYCVTAGRGFPYWGQGTLVTVSS
VL: DIQMTQSPSSLSASVGDRVTITCRASQVIRRSLAWYQQKPGKAPKLLIYAASNLASGVPSRFSGSGSGTDFTLTISSLQPEDFATYYCQQSNTSPLTFGQGTKVEIKRTVAAPDIQMTQSPSSMSVSVGDRVTITCHSSQDINSNIGWLQQKPGKSFKGLIYHGTNLDDGVPSRFSGSGSGTDYTLTISSLQPEDFATYYCVQYAQFPWTFGGGTKLEIKR
notes: as for B3
B6: DVD840 (bispecific antibody)
VH: EVQLVESGGGLVQPGGSLRLSCAASGYTFTNYGMNWVRQAPGKGLEWVGWINTYTGEPTYAADFKRRFTFSLDTSKSTAYLQMNSLRAEDTAVYYCAKYPHYYGSSHWYFDVWGQGTLVTVSSASTKGPQVQLQESGPGLVKPSQTLSLTCTVSGYSISSDFAWNWIRQPPGKGLEWMGYISYSGNTRYQPSLKSRITISRDTSKNQFFLKLNSVTAADTATYYCVTAGRGFPYWGQGTLVTVSS
VL: DIQMTQSPSSLSASVGDRVTITCSASQDISNYLNWYQQKPGKAPKVLIYFTSSLHSGVPSRFSGSGSGTDFTLTISSLQPEDFATYYCQQYSTVPWTFGQGTKVEIKRTVAAPSVFIFPPDIQMTQSPSSMSVSVGDRVTITCHSSQDINSNIGWLQQKPGKSFKGLIYHGTNLDDGVPSRFSGSGSGTDYTLTISSLQPEDFATYYCVQYAQFPWTFGGGTKLEIKR
notes: as for B4
B7: DVD850 (bispecific antibody)
VH: EVQLVESGGGLVQPGGSLRLSCAASGFTISDYWIHWVRQAPGKGLEWVAGITPAGGYTYYADSVKGRFTISADTSKNTAYLQMNSLRAEDTAVYYCARFVFFLPYAMDYWGQGTLVTVSSASTKGPQVQLQESGPGLVKPSQTLSLTCTVSGYSISSDFAWNWIRQPPGKGLEWMGYISYSGNTRYQPSLKSRITISRDTSKNQFFLKLNSVTAADTATYYCVTAGRGFPYWGQGTLVTVSS
VL: DIQMTQSPSSLSASVGDRVTITCRASQDVSTAVAWYQQKPGKAPKLLIYSASFLYSGVPSRFSGSGSGTDFTLTISSLQPEDFATYYCQQSYTTPPTFGQGTKVEIKRTVAAPSVFIFPPDIQMTQSPSSMSVSVGDRVTITCHSSQDINSNIGWLQQKPGKSFKGLIYHGTNLDDGVPSRFSGSGSGTDYTLTISSLQPEDFATYYCVQYAQFPWTFGGGTKLEIKR
notes: as for B4
B8: DVD852 (bispecific antibody)
VH: EVQLVESGGGLVQPGGSLRLSCAASGFTINASWIHWVRQAPGKGLEWVGAIYPYSGYTNYADSVKGRFTISADTSKNTAYLQMNSLRAEDTAVYYCARWGHSTSPWAMDYWGQGTLVTVSSASTKGPQVQLQESGPGLVKPSQTLSLTCTVSGYSISSDFAWNWIRQPPGKGLEWMGYISYSGNTRYQPSLKSRITISRDTSKNQFFLKLNSVTAADTATYYCVTAGRGFPYWGQGTLVTVSS
VL: DIQMTQSPSSLSASVGDRVTITCRASQVIRRSLAWYQQKPGKAPKLLIYAASNLASGVPSRFSGSGSGTDFTLTISSLQPEDFATYYCQQSNTSPLTFGQGTKVEIKRTVAAPSVFIFPPDIQMTQSPSSMSVSVGDRVTITCHSSQDINSNIGWLQQKPGKSFKGLIYHGTNLDDGVPSRFSGSGSGTDYTLTISSLQPEDFATYYCVQYAQFPWTFGGGTKLEIKR
notes: as for B4
B9: DVD338 (bispecific antibody)
VH: B6 VH
VL: DIQMTQSPSSLSASVGDRVTITCSASQDISNYLNWYQQKPGKAPKVLIYFTSSLHSGVPSRFSGSGSGTDFTLTISSLQPEDFATYYCQQYSTVPWTFGQGTKVEIKRTVAAPDIQMTQSPSSMSVSVGDRVTITCHSSQDINSNIGWLQQKPGKSFKGLIYHGTNLDDGVPSRFSGSGSGTDYTLTISSLQPEDFATYYCVQYAQFPWTFGGGTKLEIKR
notes: as for B2
B10: DVD758 (bispecific antibody)
VH: B7 VH
VL: DIQMTQSPSSLSASVGDRVTITCRASQDVSTAVAWYQQKPGKAPKLLIYSASFLYSGVPSRFSGSGSGTDFTLTISSLQPEDFATYYCQQSYTTPPTFGQGTKVEIKRTVAAPDIQMTQSPSSMSVSVGDRVTITCHSSQDINSNIGWLQQKPGKSFKGLIYHGTNLDDGVPSRFSGSGSGTDYTLTISSLQPEDFATYYCVQYAQFPWTFGGGTKLEIKR
notes: as for B2
B11: DVD760 (bispecific antibody)
VH: B8 VH
VL: B5 VL
notes: as for B2

Target: T1, EGFR (UniProt P00533 25-645, limits assumed, biotinylated)
T1 construct: ELISA antigen; construct not described
Experiment: direct bind ELISA, N-term VD;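 further: antibody or DVD-Ig preparations bound to immobilized target antigen on ELISA plates, 1 h at room temperature, TMB detection read as absorbance at 450 nm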

In order of falling EC50:
1. B4  6.28 nM
2. B1  5.97 nM
3. B2  5.96 nM
4. B3  4.56 nM

Target: T2, VEGF (UniProt P15692-4 27-191, limits assumed, biotinylated)
T2 construct: ELISA antigen
Experiment: direct bind ELISA, N-term VD;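 further: antibody or DVD-Ig preparations bound to immobilized target antigen on ELISA plates, 1 h at room temperature, TMB detection read as absorbance at 450 nm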

In order of rising EC50:
1. B6  0.18 nM
2. B9  0.24 nM
3. B5  0.72 nM
4. B11  0.77 nM
5. B8  0.78 nM
6. B10  5.37 nM
7. B7  10.2 nM

Target: T1, EGFR
Experiment: direct bind ELISA, C-term VD;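 further: ELISA with antibody or DVD-Ig preparations applied to target antigen-coated plates for 1 h at room temperature, TMB colour development, absorbance read at 450 nm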

In order of falling EC50:
1. B10  562 nM
2. B11  328 nM
3. B9  206 nM
4. B5  90 nM
5. B7  71.8 nM
6. B6  69.8 nM
7. B8  68.1 nM

Target: RON (UniProt Q04912 25-571, biotinylated)
Experiment: direct bind ELISA, C-term VD;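 further: ELISA with antibody or DVD-Ig preparations applied to target antigen-coated plates for 1 h at room temperature, TMB colour development, absorbance read at 450 nm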

In order of rising EC50:
1. B1  0.64 nM
2. B3  1.16 nM
3. B4  6.57 nM
4. B2  25 nM
